Results reported in patent US20090017041A1.

Columns and labels:
[1] = target: monomer-enriched preparation of the Aβ1-42 peptide (Example 16); test: ELISA, fraction coated at 2.2 µM; assay 1; antibody dilution 1:128 (start 0.5 µg/ml)
[2] = target: oligomer-enriched preparation of the Aβ1-42 peptide (Example 16); test: as above
[3] = target: low molecular weight (LMW) monomeric preparation of the Aβ1-42 peptide (Example 15) (human); test: ELISA, fraction coated at 2 µM; antibody 0.0313 µg/ml
[4] = target: high molecular weight (HMW) proto-fibrillar (PF) oligomer enriched preparation of the Aβ1-42 peptide (Example 15) (human); test: as above
[5] = target: monomer-enriched preparation of the Aβ1-42 peptide (Example 16); test: ELISA, fraction coated at 2.2 µM; assay 3; antibody dilution 1:4 (start 0.5 µg/ml)
[6] = target: oligomer-enriched preparation of the Aβ1-42 peptide (Example 16); test: as above
[7] = target: monomer-enriched preparation of the Aβ1-42 peptide (Example 16); test: ELISA, fraction coated at 2.2 µM; assay 3; antibody dilution 1:1 (start 0.5 µg/ml)
[8] = target: oligomer-enriched preparation of the Aβ1-42 peptide (Example 16); test: as above
[9] = target: monomer-enriched preparation of the Aβ1-42 peptide (Example 16); test: ELISA, fraction coated at 2.2 µM; antibody dilution 1:16 (start 0.5 µg/ml)
[10] = target: oligomer-enriched preparation of the Aβ1-42 peptide (Example 16); test: as above

Chain of monomer-enriched preparation of the Aβ1-42 peptide (Example 16) (peptide, as listed by the source): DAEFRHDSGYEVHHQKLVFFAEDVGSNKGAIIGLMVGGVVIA
Chain of oligomer-enriched preparation of the Aβ1-42 peptide (Example 16) (peptide, as listed by the source): as above
Chain of low molecular weight (LMW) monomeric preparation of the Aβ1-42 peptide (Example 15) (human) (peptide, as listed by the source): as above
Chain of high molecular weight (HMW) proto-fibrillar (PF) oligomer enriched preparation of the Aβ1-42 peptide (Example 15) (human) (peptide, as listed by the source): as above

Substance 6E10 control antibody has an O.D. (405 nm) [1] of 0.64 O.D, an O.D. (405 nm) [2] of 0.62 O.D and an O.D. (405 nm) [3] of 0.329 O.D. For the same substance, the O.D. (405 nm) [4] was 0.286 O.D, the O.D. (405 nm) [5] was 3.52 O.D and the O.D. (405 nm) [6] was 3.64 O.D. The O.D. (405 nm) [7] was 4.04 O.D, the O.D. (405 nm) [8] was 3.89 O.D and the O.D. (405 nm), mean of 3 assays [9] was 1.98 O.D. For the same substance, the O.D. (405 nm), mean of 3 assays [10] was 1.92 O.D.
